Reference: patent US20240182536A1 (MURAL ONCOLOGY, published 2024)
Numbering of substitutions follows the chain as printed. Numbers in names are those of the source.

T1: IL-18 receptors on HEK-Blue IL-18 reporter cells (UniProt Q13478 19-541; O95256 20-599, limits assumed)
T1 sequence (looked up) 1: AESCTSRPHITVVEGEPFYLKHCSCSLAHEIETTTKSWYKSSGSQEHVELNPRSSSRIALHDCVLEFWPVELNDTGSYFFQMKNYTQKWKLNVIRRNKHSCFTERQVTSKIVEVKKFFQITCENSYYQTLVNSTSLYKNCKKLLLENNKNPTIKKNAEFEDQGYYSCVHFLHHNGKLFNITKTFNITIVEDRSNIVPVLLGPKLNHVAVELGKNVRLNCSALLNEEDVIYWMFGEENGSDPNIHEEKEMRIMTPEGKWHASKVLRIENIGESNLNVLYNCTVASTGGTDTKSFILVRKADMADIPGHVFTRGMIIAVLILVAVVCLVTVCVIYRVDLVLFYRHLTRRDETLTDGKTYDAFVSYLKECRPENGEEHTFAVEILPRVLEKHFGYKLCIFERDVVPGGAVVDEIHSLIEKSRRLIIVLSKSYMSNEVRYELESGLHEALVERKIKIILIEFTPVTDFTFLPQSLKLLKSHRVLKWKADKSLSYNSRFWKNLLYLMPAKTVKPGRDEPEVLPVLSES
T1 sequence (looked up) 2: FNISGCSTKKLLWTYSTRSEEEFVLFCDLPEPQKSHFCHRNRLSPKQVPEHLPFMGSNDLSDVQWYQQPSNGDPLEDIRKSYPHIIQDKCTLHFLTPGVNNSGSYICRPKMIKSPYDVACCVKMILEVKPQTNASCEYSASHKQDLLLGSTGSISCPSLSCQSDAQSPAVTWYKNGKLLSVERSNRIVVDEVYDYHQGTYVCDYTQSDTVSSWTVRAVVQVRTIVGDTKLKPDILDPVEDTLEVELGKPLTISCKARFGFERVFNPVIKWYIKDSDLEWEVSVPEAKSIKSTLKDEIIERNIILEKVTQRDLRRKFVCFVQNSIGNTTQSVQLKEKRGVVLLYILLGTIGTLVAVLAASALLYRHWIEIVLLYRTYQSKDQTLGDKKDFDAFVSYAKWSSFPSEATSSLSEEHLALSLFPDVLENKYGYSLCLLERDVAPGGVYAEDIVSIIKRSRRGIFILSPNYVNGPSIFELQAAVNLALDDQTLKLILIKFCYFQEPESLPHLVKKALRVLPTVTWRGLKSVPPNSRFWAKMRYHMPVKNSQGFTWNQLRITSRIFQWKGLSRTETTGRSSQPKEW

T2: IL-18 binding protein (IL-18BP) (UniProt O95998 31-194)
T2 sequence (looked up): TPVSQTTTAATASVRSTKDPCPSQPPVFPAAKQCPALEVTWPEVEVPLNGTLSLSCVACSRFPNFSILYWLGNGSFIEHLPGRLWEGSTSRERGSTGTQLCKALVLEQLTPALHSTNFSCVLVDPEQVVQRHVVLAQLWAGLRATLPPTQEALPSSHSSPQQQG

B1: IL-18 variant G3H, E6Q, K53N, D54S, S55P, T63A, N91I, R104S (ligand)
chain: YFHKLQSKLSVIRNLNDQVLFIDQGNRPLFEDMTDSDMRDNAPRTIFIISMYNSPQPRGMAVAISVKSEKISTLSSENKIISFKEMNPPDIIKDTKSDIIFFQSSVPGHDNKMQFESSSYEGYFLASEKERDLFKLILKKEDELGDRSIMFTVQNED
B2: IL-18 variant G3L, E6N, I22M, T63V, N91T, R104P (ligand)
chain: B1 chain with H3L, Q6N, I22M, N53K, S54D, P55S, A63V, I91T, S104P
B3: IL-18 variant G3Q, E6D, K53S, D54I, S55E, T63S, N91S, R104Q (ligand)
chain: B1 chain with H3Q, Q6D, N53S, S54I, P55E, A63S, I91S, S104Q
B4: IL-18 variant K53T, D54H, S55V, T63A, N91K (ligand)
chain: B1 chain with H3G, Q6E, N53T, S54H, P55V, I91K, S104R
B5: IL-18 variant G3P, E6K, K53T, D54Y, S55V, T63I, N91I (ligand)
chain: B1 chain with H3P, Q6K, N53T, S54Y, P55V, A63I, S104R
B6: IL-18 variant G3P, E6G, D54P, S55W, N91E, R104K (ligand)
chain: B1 chain with H3P, Q6G, N53K, S54P, P55W, A63T, I91E, S104K
B7: IL-18 variant E6N, D54N, S55N, N91H, R104P (ligand)
chain: B1 chain with H3G, Q6N, N53K, S54N, P55N, A63T, I91H, S104P
B8: IL-18 variant G3P, E6K, K53N, D54S, S55P, T63S, N91S, R104Q (ligand)
chain: B1 chain with H3P, Q6K, A63S, I91S, S104Q
B9: IL-18 variant G3R, E6D, D54A, S55Q, T63S, N91K, R104P (ligand)
chain: B1 chain with H3R, Q6D, N53K, S54A, P55Q, A63S, I91K, S104P

Legend:
[1] = biological target: T1, IL-18 receptors on HEK-Blue IL-18 …; assay: cell-based or functional assay
[2] = biological target: T2, IL-18 binding protein (IL-18BP); assay: cell-based or functional assay

| Binder | Activity, No BP, DF-100000 [1] | Activity, No BP, DF-500000 [1] | Activity, No BP, DF-2500000 [1] | Activity, +100 nM BP, DF-1000002 [2] | Activity, +100 nM BP, DF-5000003 [2] | Activity, +100 nM BP, DF-25000004 [2] | Ratio (-BP/+BP), DF-1000005 [2] | Ratio (-BP/+BP), DF-5000006 [2] | Ratio (-BP/+BP), DF-25000007 [2] |
| --- | --- | --- | --- | --- | --- | --- | --- | --- | --- |
| B1 | 0.18 | 0.09 | 0.07 | 0.21 | 0.12 | 0.08 | 0.86 | 0.78 | 0.91 |
| B2 | 0.08 | 0.07 | 0.07 | 0.09 | 0.09 | 0.07 | 0.8 | 0.82 | 0.97 |
| B3 | 0.09 | 0.07 | 0.07 | 0.12 | 0.09 | 0.11 | 0.73 | 0.8 | 0.68 |
| B4 | 0.28 | 0.12 | 0.12 | 0.23 | 0.1 | 0.07 | 1.18 | 1.24 | 1.58 |
| B5 | 0.26 | 0.11 | 0.07 | 0.32 | 0.11 | 0.08 | 0.81 | 1.01 | 0.93 |
| B6 | 0.09 | 0.08 | 0.07 | 0.09 | 0.1 | 0.07 | 0.98 | 0.84 | 0.92 |
| B7 | 0.08 | 0.07 | 0.07 | 0.08 | 0.08 | 0.09 | 0.99 | 0.93 | 0.78 |
| B8 | 0.07 | 0.08 | 0.07 | 0.07 | 0.07 | 0.07 | 0.92 | 1.03 | 0.95 |
| B9 | 0.07 | 0.08 | 0.07 | 0.07 | 0.08 | 0.07 | 0.98 | 0.98 | 0.96 |
